Test results as given in publication PMC5778469.

Biological target: T1, Cascade (type I-E effector complex) (Escherichia coli, UniProt Q46901;P76632;Q46899;Q46898;Q46897 1-502;1-160;1-363;1-224;1-199)
T1 sequence 1: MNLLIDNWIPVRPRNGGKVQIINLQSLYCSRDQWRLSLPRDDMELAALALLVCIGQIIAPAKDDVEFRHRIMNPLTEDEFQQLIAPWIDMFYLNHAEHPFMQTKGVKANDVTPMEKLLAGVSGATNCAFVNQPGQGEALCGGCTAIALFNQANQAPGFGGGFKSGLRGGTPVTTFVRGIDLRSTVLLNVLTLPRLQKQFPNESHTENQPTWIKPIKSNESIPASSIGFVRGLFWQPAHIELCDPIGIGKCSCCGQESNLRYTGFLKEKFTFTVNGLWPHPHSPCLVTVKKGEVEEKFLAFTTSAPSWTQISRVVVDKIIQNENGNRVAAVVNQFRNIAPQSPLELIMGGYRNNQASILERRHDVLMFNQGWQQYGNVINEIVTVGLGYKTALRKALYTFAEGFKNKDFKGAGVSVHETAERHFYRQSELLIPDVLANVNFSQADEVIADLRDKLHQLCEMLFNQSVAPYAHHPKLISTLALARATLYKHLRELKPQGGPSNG
T1 sequence 2: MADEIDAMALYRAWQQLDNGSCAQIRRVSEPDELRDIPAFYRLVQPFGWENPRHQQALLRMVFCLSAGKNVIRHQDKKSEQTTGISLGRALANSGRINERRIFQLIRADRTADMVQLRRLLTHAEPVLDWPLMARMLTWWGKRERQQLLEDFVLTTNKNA
T1 sequence 3: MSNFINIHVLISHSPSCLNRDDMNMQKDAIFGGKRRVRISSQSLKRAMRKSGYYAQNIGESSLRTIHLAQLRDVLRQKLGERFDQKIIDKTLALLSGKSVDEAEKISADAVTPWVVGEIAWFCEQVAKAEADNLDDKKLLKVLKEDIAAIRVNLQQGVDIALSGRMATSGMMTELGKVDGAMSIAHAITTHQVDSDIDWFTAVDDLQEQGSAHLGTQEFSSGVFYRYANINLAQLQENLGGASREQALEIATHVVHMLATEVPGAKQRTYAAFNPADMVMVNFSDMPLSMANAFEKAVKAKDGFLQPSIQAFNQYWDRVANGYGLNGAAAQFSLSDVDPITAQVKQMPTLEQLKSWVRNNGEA
T1 sequence 4: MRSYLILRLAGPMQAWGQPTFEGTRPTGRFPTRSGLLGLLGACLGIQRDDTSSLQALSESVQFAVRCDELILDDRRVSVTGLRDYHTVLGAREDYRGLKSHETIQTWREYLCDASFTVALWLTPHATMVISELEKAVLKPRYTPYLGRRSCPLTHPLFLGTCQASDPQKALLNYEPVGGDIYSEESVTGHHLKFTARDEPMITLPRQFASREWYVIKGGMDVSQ
T1 sequence 5: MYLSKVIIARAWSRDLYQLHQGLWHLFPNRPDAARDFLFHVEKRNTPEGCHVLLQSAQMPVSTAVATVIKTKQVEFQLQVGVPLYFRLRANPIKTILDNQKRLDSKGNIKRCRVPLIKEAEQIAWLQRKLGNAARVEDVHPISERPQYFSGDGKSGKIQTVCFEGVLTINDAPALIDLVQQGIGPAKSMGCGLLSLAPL
Test: EMSA

B1: sp8 target, 5-ghmC, with Cascade crRNA sp8 (dsDNA)
DNA 1: TTCATTTGATGCTCGATGAGTTTTTCTAAAAGCTGACGACCGGGTCTCCGCAAGTGGCACTTTTCCATGACCAAAATCCCTTAACGTGAGTTTTCGTT
DNA 2: AACGAAAACTCACGTTAAGGGATTTTGGTCATGGAAAAGTGCCACTTGCGGAGACCCGGTCGTCAGCTTTTAGAAAAACTCATCGAGCATCAAATGAA
modifications: glucosyl-5-hydroxymethylcytosine replacing C; exact positions not stated
B1: no binding.
